The supplement of paper PMC10567573

B1: EPB41L3 (parent)
chain: SMQCKVILLDGSEYTCDVEKRSRG

Variants of: B1
Assay: protein stability index of a GFP-peptide fusion (GPS, HEK-293T) (PSI 1-6); higher = more stable
Conditions: c terminus: a fixed tail appended
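Note: lentivirally expressed fusions sorted by FACS into six bins by GFP to DsRed ratio, PSI derived from sequencing read proportions per bin multiplied by bin number.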

Protein stability index: each site, then its substitutions
E13: V 1.86 | W 2.05 | Y 1.9
Y14: A 3.7 | C 2.67 | D 3.81 | E 3.83 | F 2.21 | G 3.69 | I 2.74 | K 3.97 | L 1.84 | N 3.7 | P 3.66 | R 3.66 | S 4.43 | T 2.81 | V 3.15 | W 1.9
T15: D 3.38 | E 2.45 | F 1.63 | H 1.98 | I 2.67 | L 1.67 | M 2.49 | P 3.37 | Q 3.19 | R 2.45 | S 3.03 | V 2.06 | Y 2.58
C16: A 2.95 | D 3.44 | E 3.52 | F 2.66 | G 3.19 | H 3.53 | I 2.77 | K 3.07 | L 2.23 | M 2.41 | N 2.84 | P 2.66 | S 2.65 | T 2.55 | V 3.7 | W 2.01
D17: C 2.45 | E 2.84 | G 2.34 | H 2.51 | I 1.89 | L 3.38 | M 1.1 | N 2.36 | P 3.08 | R 3.07 | S 2.21 | T 2.59 | W 2.06 | Y 1.61
V18: A 3.5 | C 2.29 | D 3.36 | E 3.18 | F 2.1 | G 2.96 | H 2.72 | I 2.82 | K 4.16 | L 1.79 | M 2.62 | N 3.24 | P 3.57 | Q 3.83 | R 2.92 | S 3.69 | T 3.38 | Y 2.29
E19: A 2.17 | C 2.13 | D 2.19 | F 1.19 | G 2.51 | H 1.73 | I 1.93 | K 2.34 | L 1.99 | M 2.14 | N 2.29 | P 2.11 | Q 2.5 | R 2.15 | S 2.6 | T 1.54 | V 2.35 | W 2.11 | Y 2.14
K20: A 2.06 | C 2.15 | D 3.36 | E 3.26 | F 1.43 | H 2.87 | I 1.21 | L 1.67 | M 2.04 | N 3.04 | P 2.49 | Q 2.6 | S 2.52 | T 3.66 | V 2.11 | W 1.02
R21: C 2.86 | D 3.49 | E 3.09 | G 2.73 | H 2.72 | I 1.88 | K 3.56 | L 2.31 | M 1.88 | N 1.92 | P 3.06 | Q 2.55 | T 2.84 | V 2.19 | W 1.57 | Y 2.09
S22: A 2.29 | C 2.09 | D 2.52 | E 3.75 | F 2.38 | G 3.02 | H 2.89 | I 2.16 | L 2.08 | M 2.4 | N 3.47 | P 2.56 | R 3.11 | T 3.63 | V 2.12 | W 2.11 | Y 2.38
R23: A 3.05 | C 3.04 | D 3.51 | E 2.63 | F 2.07 | H 3.31 | I 2.45 | K 3.39 | L 2.8 | M 2.72 | N 2.52 | P 2.51 | Q 2.87 | S 3.17 | T 3.61 | V 2.88 | Y 2.22
G24: A 3.43 | C 2.56
